The assay deals with PPARα (UniProt P23204). As to the kind of experiment: Flag-JMJD3 co-IP, PPARα immunoblot. The following applies: reference: wild type, FGF21-treated; sites T1044. On the technique in general: In western blotting, separated proteins are transferred to a membrane and probed.

On to “JMJD3 (KDM6B) (from UniProt Q5NCY0) T1044A, FGF21-treated”, for which the “binding against the reference” value is on record as “weaker”.

The values are drawn from paper PMC7010817.
